From patent publication US20190309288A1, “TARGETED MUTAGENESIS” (THE BOARD OF TRUSTEES OF THE LELAND STANFORD JUNIOR …, priority 2016, published 2019)

Tests used:
GFP = settings: cells expressing dCas9, MS2-AID*Δ, mCherry, sgRNA individually
Description: (§1) Lentiviral production as well as infection and culturing of K562 cells (ATCC) were performed as described (45). Parental K562 cell lines were generated by infecting dCas9-Blast (pGH125) followed by blasticidin selection (10 μg/mL, Gibco) for 7 days. Cells were subsequently infected with both GFP (pGH045) and mCherry (pGH044) expression vectors or with a wtGFP (pGH220) expression vector and sorted via FACS for fluorescence. These cell lines were used as the parental samples in the sequencing assays. For experiments using an integrated construct, cells were infected with MS2-AID (pGH153, 156, 183, and 335) expressing vectors followed by selection with hygromycin B (200 μg/mL, Life Technologies) for 7 days. All cell lines were maintained in a humidified incubator (37° C., 5% CO2), and checked regularly for mycoplasma contamination.
(§2) Nucleofection of K562 cells was performed as described (46). 1 million K562 cells were harvested for each electroporation. Cells were centrifuged at 300×g for 5 minutes and resuspended in 100 μL of nucleofection solution and mixed with plasmid DNA (5 μg MS2-AID expressing plasmid and 5 μg sgRNA expression vector) and loaded into a 2 mm cuvette (VWR). Electroporations were performed using the T-016 program on the Lonza Nucleofector 2b. After electroporation, cells were rescued in warm, supplemented RPMI media.

GFP and mCherry = test: Simultaneous mutation of two loci, flow cytometry; type: cell-based; settings: cells expressing dCas9, MS2-AID*Δ
Description: Scatter plots were generated in FlowJo.
Independent mutagenesis at multiple locations is typically not possible with traditional directed evolution experiments. However, the CRISPR/Cas9 system can target multiple loci using different sgRNAs (26, 27). Accordingly, experiments were conducted using two guides, one targeting GFP (sgGFP.10) and the other targeting mCherry (sgmCherry.1), both individually and in combination.

mCherry = mCherry fluorescence by flow cytometry as proxy for off-target mutation; type: cell-based; settings: cells expressing dCas9, MS2-AID*Δ, GFP, sgRNA individually
Description: as §1, §2

PSMB5 = test: Installation and validation of bortezomib resistant PSMB5 mutations, cell viability; type: cell-based; settings: mutation knocked into K562 cells at native PSMB5 locus; 20 nM bortezomib, 14 days; compared to controls
Description: sgRNAs were designed to target near the location of the installed SNP and 101-nt donor oligos were designed to be centered around the installed mutation. Oligonucleotides with proper overhangs were ordered from IDT and annealed before ligation into BbsI digested pGH020, a hu6 driven sgRNA expression vector. All plasmids were verified by Sanger sequencing.
K562 cells expressing Cas9 were electroporated with 5 μg of sgRNA expressing vector and 100 picomoles of donor oligo. Cells were grown for 6 days before 300,000 cells were placed under selection with 20 nM bortezomib for 14 days. The viability of the cells was measured by flow cytometry using a live cell gate (FSC/SSC). After selection, 750,000 cells were harvested and genomic DNA was extracted using the QiaAmp DNA Mini Kit (Qiagen). The PSMB5 exonic locus containing the mutation was PCR amplified, gel purified, and ligated into the pCR-Blunt vector using the Zero-Blunt cloning kit (Life Technologies). 8-15 colonies were Sanger sequenced for each sample.
Eight of these mutations were functionally validated by knocking each one into the genome separately at the native PSMB5 locus using active Cas9 cutting followed by HDR mediated by a DNA donor oligo (26, 27). To control for the effect of Cas9 cutting and HDR, a synonymous mutation not identified in our screen was knocked into each exon. Cas9 expressing K562 cells were electroporated with donor oligo and sgRNA and incubated for six days followed by subsequent selection with bortezomib. After 14 days, the viability of the cells was measured (FIG. 12). […] For the most resistant mutations, the PSMB5 locus was sequenced following bortezomib selection and the presence of the expected mutation was verified in the majority of non-frameshifted sequences (FIG. 13). Together, these experiments indicate that the technology provided herein selectively mutagenized an endogenously expressed protein target, identifying known and novel mutants that confer drug resistance.

Molecule: sgGFP.10: sgRNA targeting GFP, sequence CGTCGCCGTCCAGCTCGACC (SEQ ID NO: 38) (chemistry not given here)
- GFP low population (GFP): ~15%
- cells with mutations at both loci (neither GFP nor mCherry) (GFP and mCherry): 0.26%

Molecule: sgmCherry.1: sgRNA targeting mCherry, sequence GCGGTCTGGGTGCCCTCGTA (SEQ ID NO: 81) (listed as DNA, chemistry not fully specified)
- mCherry low population (mCherry): ~15%
- cells with mutations at both loci (neither GFP nor mCherry) (GFP and mCherry): 0.30%

B1: R78N: PSMB5 variant, chr14: 23033640 C > A/T (protein, UniProt P28074 60-263, looked up, variant R78N)
Proteasome subunit beta type-5: TTTLAFKFRHGVIVAADSNATAGAYIASQTVKKVIEINPYLLGTMAGGAADCSFWERLLARQCRIYELRNKERISVAAASKLLANMVYQYKGMGLSMGTMICGWDKRGPGLYYVDSEGNRISGATFSVGSGSVYAYGVMDRGYSYDLEVEQAYDLARRAIYQATYRDAYSGGAVNLYHVREDGWIRVSSDNVADLHEKYSGSTP
- protection against bortezomib-induced cell death (viability) (PSMB5): strongly protective

B2: A108V: PSMB5 variant, chr14: 23033550 G > A; residue known to be involved in binding bortezomib (protein, UniProt P28074 60-263, looked up, variant A108V)
Proteasome subunit beta type-5: TTTLAFKFRHGVIVAADSRATAGAYIASQTVKKVIEINPYLLGTMAGGVADCSFWERLLARQCRIYELRNKERISVAAASKLLANMVYQYKGMGLSMGTMICGWDKRGPGLYYVDSEGNRISGATFSVGSGSVYAYGVMDRGYSYDLEVEQAYDLARRAIYQATYRDAYSGGAVNLYHVREDGWIRVSSDNVADLHEKYSGSTP
- protection against bortezomib-induced cell death (viability) (PSMB5): strongly protective

B3: G82D: PSMB5 variant, chr14: 23033628 C > T (protein, UniProt P28074 60-263, looked up, variant G82D)
Proteasome subunit beta type-5: TTTLAFKFRHGVIVAADSRATADAYIASQTVKKVIEINPYLLGTMAGGAADCSFWERLLARQCRIYELRNKERISVAAASKLLANMVYQYKGMGLSMGTMICGWDKRGPGLYYVDSEGNRISGATFSVGSGSVYAYGVMDRGYSYDLEVEQAYDLARRAIYQATYRDAYSGGAVNLYHVREDGWIRVSSDNVADLHEKYSGSTP
- protection against bortezomib-induced cell death (viability) (PSMB5): more modest protection

B4: G242D: PSMB5 variant in exon 4, chr14: 23026156 C > T (protein, UniProt P28074 60-263, looked up, variant G242D)
Proteasome subunit beta type-5: TTTLAFKFRHGVIVAADSRATAGAYIASQTVKKVIEINPYLLGTMAGGAADCSFWERLLARQCRIYELRNKERISVAAASKLLANMVYQYKGMGLSMGTMICGWDKRGPGLYYVDSEGNRISGATFSVGSGSVYAYGVMDRGYSYDLEVEQAYDLARRAIYQATYRDAYSGGAVNLYHVREDDWIRVSSDNVADLHEKYSGSTP
- protection against bortezomib-induced cell death (viability) (PSMB5): strongly protective

B5: L11L: PSMB5 synonymous mutation in exon 1, chr14: 23034851 G > A (protein, UniProt P28074 60-263, looked up)
Proteasome subunit beta type-5: TTTLAFKFRHGVIVAADSRATAGAYIASQTVKKVIEINPYLLGTMAGGAADCSFWERLLARQCRIYELRNKERISVAAASKLLANMVYQYKGMGLSMGTMICGWDKRGPGLYYVDSEGNRISGATFSVGSGSVYAYGVMDRGYSYDLEVEQAYDLARRAIYQATYRDAYSGGAVNLYHVREDGWIRVSSDNVADLHEKYSGSTP
modifications: synonymous mutation L11L
notes: PSMB5 synonymous mutation in exon 1, chr14: 23034851 G > A
- protection against bortezomib-induced cell death (viability) (PSMB5): more modest protection
